For test [1], the target named is T1, His-SMAD4^WT, Q13485.
T1 chain: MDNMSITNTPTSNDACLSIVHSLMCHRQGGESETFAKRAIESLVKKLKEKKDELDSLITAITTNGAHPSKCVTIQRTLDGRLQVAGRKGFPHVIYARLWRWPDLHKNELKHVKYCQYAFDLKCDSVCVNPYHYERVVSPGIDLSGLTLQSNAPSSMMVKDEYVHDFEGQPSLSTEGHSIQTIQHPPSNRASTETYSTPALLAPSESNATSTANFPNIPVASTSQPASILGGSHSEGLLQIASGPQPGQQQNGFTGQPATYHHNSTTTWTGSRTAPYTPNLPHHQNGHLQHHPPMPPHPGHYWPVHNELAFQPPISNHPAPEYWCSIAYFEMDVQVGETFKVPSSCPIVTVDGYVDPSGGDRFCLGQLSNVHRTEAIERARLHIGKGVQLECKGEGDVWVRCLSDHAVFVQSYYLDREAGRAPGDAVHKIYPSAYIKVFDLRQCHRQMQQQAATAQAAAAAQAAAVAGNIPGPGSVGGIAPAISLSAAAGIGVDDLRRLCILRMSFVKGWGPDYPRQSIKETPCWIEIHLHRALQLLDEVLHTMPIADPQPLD
Kind of test: AlphaScreen or HTRF. To be noted: remark: other sources report otherwise.

The target in test [2] is T2, His-SMAD4^R361H, Q13485.
T2 chain: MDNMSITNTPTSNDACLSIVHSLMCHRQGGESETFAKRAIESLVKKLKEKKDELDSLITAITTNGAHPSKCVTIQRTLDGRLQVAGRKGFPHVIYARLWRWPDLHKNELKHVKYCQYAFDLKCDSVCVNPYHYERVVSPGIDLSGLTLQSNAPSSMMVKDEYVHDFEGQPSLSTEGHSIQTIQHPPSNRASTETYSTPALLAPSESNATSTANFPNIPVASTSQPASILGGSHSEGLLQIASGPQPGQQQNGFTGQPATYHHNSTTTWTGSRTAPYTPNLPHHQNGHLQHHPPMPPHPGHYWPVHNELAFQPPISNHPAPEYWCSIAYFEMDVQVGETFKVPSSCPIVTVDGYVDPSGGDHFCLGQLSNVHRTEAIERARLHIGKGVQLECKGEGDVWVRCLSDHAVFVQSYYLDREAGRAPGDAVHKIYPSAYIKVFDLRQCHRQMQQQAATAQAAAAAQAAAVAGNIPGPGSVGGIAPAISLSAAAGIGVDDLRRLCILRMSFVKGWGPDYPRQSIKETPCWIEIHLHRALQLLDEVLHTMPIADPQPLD
Description: AlphaScreen or HTRF. To be noted: remark: other sources report otherwise. (Bead proximity is the source of the signal in Alpha formats.)

1 molecule from paper PMC10053325 can be followed below.

B1: Flag-SMAD3, P84022 1-425 (natural protein)
chain: MSSILPFTPPIVKRLLGWKKGEQNGQEEKWCEKAVKSLVKKLKKTGQLDELEKAITTQNVNTKCITIPRSLDGRLQVSHRKGLPHVIYCRLWRWPDLHSHHELRAMELCEFAFNMKKDEVCVNPYHYQRVETPVLPPVLVPRHTEIPAEFPPLDDYSHSIPENTNFPAGIEPQSNIPETPPPGYLSEDGETSDHQMNHSMDAGSPNLSPNPMSPAHNNLDLQPVTYCEPAFWCSISYYELNQRVGETFHASQPSMTVDGFTDPSNSERFCLGLLSNVNRNAAVELTRRHIGRGVRLYYIGGEVFAECLSDSAIFVQSPNCNQRYGWHPATVCKIPPGCNLKIFNNQEFAALLAQSVNQGFEAVYQLTRMCTIRMSFVKGWGAEYRRQTVTSTPCWIELHLNGPLQWLDKVLTQMGSPSIRCSSVS
Take B1: the signal-to-background ratio (TR-FRET) in test [1] was 30 fold. Further, in test [2], the EC50 of Go-6983 in enhancing the PPI was determined as 15.2 µM, the EC50 of PKC-412 in enhancing the PPI is greater than 100 µM, the EC50 of Ro-31-8220 in enhancing the PPI was 3.9 µM and the EC50 of UCN-1028c in enhancing the PPI was greater than 100 µM. The signal-to-background ratio (TR-FRET) in test [2] is 10 fold.
